# Laboratory results from patent US20200270310A1, “MAFG AS A POTENTIAL THERAPEUTIC TARGET TO RESTORE CHEMOSENSITIVITY IN PLATINUM-RESISTANT CANCER CELLS” (FUNDACÓIN PARA LA INVESTIGACIÓN BIOMÉDICA DEL HOSPITAL …, priority 2017, published 2020).
# B1: GCGGATGAAGACTGGTGTCGATGCATGTGTAGTGCATTTCGAGCCGTTCTATTGGTGTGCCCTAAATACGAGCAAC (nucleic acid)
# chain: GCGGATGAAGACTGGTGTCGATGCATGTGTAGTGCATTTCGAGCCGTTCTATTGGTGTGCCCTAAATACGAGCAAC
# modifications: chemistry not given here
# notes: DNA aptamer selected against the MAFG protein by SELEX
# Tests used:
# H23R cells [1] = test: ROS production after CDDP exposure, resistant cells; type: cell-based, human
# Protocol: (§1) FIG. 2. Viability assays and Reactive Oxygenated Species detection after CDDP treatment in H23 cell lines. (A) Viability to CDDP in H23S (left) and H23R (right) at 24, 48 and 72 hours and 6 concentrations of CDDP measured by MTT assay. (B) Increment of ROS production in H23S (left) and H23R (right) after 24, 48 and 72 hours of CDDP treatment. $: 72h (vs Basal).
# (§2) H23/A2780 cells were cultured in 96-well black plates at density of 10,000 cells/well. Cells were treated with 6 different doses of CDDP for 24, 48 and 72 h in RPMI containing 10% FBS. Then treatments were removed and cells were loaded with the fluorescent probe 2′,7′-dichlorodihydrofluorescein diacetate (H2DCFDA) (10 μM) for 45 minutes in RPMI medium (FBS free). Cells were washed twice with RPMI (10% FBS), and fluorescence was recorded in a Fluostar Optima, each hour, over 4 hours period. […] ROS production was calculated dividing the mean H2DCFDA fluorescence by the mean viability. […] All experiments included cells treated with RPMI alone (Basal), and one well without cells as fluorescence basal.
# (§3) H23/A2780 cells were cultured in 96-well black plates at density of 10,000 cells/well. […] Cells were washed twice with RPMI (10% FBS), and fluorescence was recorded in a Fluostar Optima at 520 nm after excitation at 485 nm. […] ROS production was calculated dividing the mean H2DCFDA fluorescence by the mean viability. […]
# [2] = system: A2780 ovarian cancer cells; test: ROS production after CDDP exposure, ovarian cells; type: cell-based, human
# Protocol: as §1, with “3.” for “2.”, “A2780” for “H23”, “A2780S” for “H23S”, “A2780R” for “H23R”
# as §2, §3
# [3] = molecular target: T1, MAFG in tumor samples of patients with lung cancer (Homo sapiens, UniProt O15525); test: Aptahistochemistry in NSCLC tumor samples; conditions: 20 tumor samples classified by MAFG mRNA levels
# T1 construct: from tissue; host or cells: Formalin-fixed paraffin-embedded NSCLC tumour sections
# Protocol: The formalin-fixed and paraffin-embedded tissue sections of patients with lung cancer were baked 15 minutes at 60° C. Deparaffinization was performed by two washes of xylene for 10 minutes each. Tissue sections were rehydrated by a sequential wash in 100%, 90%, 80%, 70% ethanol and distilled water for 5 minutes each. Antigen retrieval was achieved by heat treatment in a pressure cooker for 2 minutes in 10 mM citrate buffer (pH 6.5). Endogenous peroxidase activity of tissues was blocked with 0.3% […]. The primary binding reaction was performed with 10 pmol/ml of digoxigenin-conjugated aptamers overnight at room temperature. The secondary binding reaction was performed with anti-digoxigenin conjugated with POD (Roche; 1/200 dilution in TBS) for 45 minutes. Staining was done using the Immunoperoxidase DAB kit (Master Diagnostica), according to the manufacturer's instructions. The sections were counterstained with hematoxylin.
# We then took advantage of the aptacytochemistry to perform an aptamer-based histochemistry in 20 tumor samples from our cohort of patients with known mRNA levels of MAFG. […] To determine the correlation between the aptahistochemistry and the mRNA levels of MAFG, we calculated the percentage of cells with positive staining from the total number of cells computed at four different areas randomly selected for each sample.
# MAFG = test: Determination of the MAFG amino acids with which the aptamer binds; conditions: aligned with peptides M4 and M5
# Text: FIG. 11. Amino acids of MAFG with which apMNK6F binds (see chA and chB). Interaction zones of apMNK6F aligned with peptides M4 and M5
# Moreover, we determined the precise amino acids of MAFG with which apMNK6F binds (see chA and chB of FIG. 11). […] More precisely, the interaction occurs with amino acids 57ARG, 60LYS, 61ASN, 62ARG, 63GLY, 64TYR, 65ALA, 66ALA, 67SER, 68CYS, 69ARG, 70VAL, 71LYS, and 75GLN of the epitope of MAFG comprising amino acids 57 to 75 RTLKNRGYAASCRVKRVTQ (amino acids 57 to 75).
# H23R cells [4] = test: Semiquantitative RT-PCR of MAFG and HMOX1 in aptamer-transfected cells after platinum treatment; type: cell-based, human; conditions: aptamer-transfected H23R after platinum treatment vs H23R
# Protocol: (§4) For semiquantitative RT-PCR, 500 ng of total RNA isolated from cell lines was used for RT reaction using PrimeScript™ RT Master (Clontech-Takara, USA) and subsequent semiquantitative PCR using Promega PCR Mix (Promega, USA) as previously described. Relative quantification was performed by measuring the intensity of band amplified using ImageJ software. Primers for HMOX1 (F: 5′-[…]-3′; R: 5′-[…]-3′), MAFG (F: 5′-[…]-3′; R: 5′-[…]-3′) and GAPDH (F: 5′-GAGAGACCCTCACTGCTG-3′; R: 5′-[…]-3′) were designed to include the probe from the array in order to assure the correct transcript identification.
# H1299 cells = test: Expression of MAFG and HMOX1 in cells carrying the aptamer; type: cell-based, human; conditions: cells carrying apMAFG6F
# Protocol: as §4
# T1 sequence (O15525 whole entry): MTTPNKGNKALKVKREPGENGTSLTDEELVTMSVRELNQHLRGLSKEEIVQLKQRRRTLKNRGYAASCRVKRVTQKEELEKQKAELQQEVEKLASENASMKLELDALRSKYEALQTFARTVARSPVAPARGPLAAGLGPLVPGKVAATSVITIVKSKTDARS
molecule,measurement,setting,value
"[NH2][Pt]([NH2])([Cl])[Cl] [CDDP, Cisplatin]",ROS production versus basal untreated cells,H23R cells [1]; 3.00 μg/ml CDDP,159%
same,ROS after treatment with the drug,H23R cells [1]; Example 1,no changes
same,differences in ROS production between sensitive and resistant cells,[2],confirmed
B1,percentage of positive cells in samples with higher MAFG levels,[3],significant increment in the percentage of positive cells
same,interaction zone of the aptamer on MAFG,MAFG,interaction occurs mainly with peptide M4
same,HMOX1 expression,H23R cells [4],decrease in their expression
same,MAFG expression,H23R cells [4],decrease in their expression
same,HMOX1 expression,H1299 cells,decrease
same,MAFG expression,H1299 cells,decrease
